Target: T1, biotinylated recombinant human BCMA (ACROS Cat #BC7-H82F0) (human, UniProt Q02223 1-54, biotinylated (site not stated))
T1 construct: Bought reagent; also called CD269; B-cell maturation antigen
T1 sequence (looked up): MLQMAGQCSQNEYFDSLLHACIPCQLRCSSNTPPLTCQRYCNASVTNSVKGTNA
Assay: flow cytometry of CAR T cells stained with biotinylated recombinant antigen

binding result: binds
B1: anti-BCMA CAR comprising the amino acid sequence of SEQ ID NO: 86 (other)
chain: QVQLVQSGAELKKPGASVKVSCKASGNTLTNYVIHWVRQAPGQRLEWMGYILPYNDLTKYSQKFQGRVTITRDKSASTAYMELSSLRSEDTAVYYCTRWDWDGFFDPWGQGTTVTVSSGGGGSGGGGSGGGGSEIVMTQSPATLSVSPGERASISCRASQSLVHSNGNTHLHWYQQRPGQAPRLLIYSVSNRFSEVPARFSGSGSGTDFTLTISSVESEDFAVYYCSQTSHIPYTFGGGTKLEIKSAAAFVPVFLPAKPTTTPAPRPPTPAPTIASQPLSLRPEACRPAAGGAVHTRGLDFACDIYIWAPLAGTCGVLLLSLVITLYCNHRNRKRGRKKLLYIFKQPFMRPVQTTQEEDGCSCRFPEEEEGGCELRVKFSRSADAPAYQQGQNQLYNELNLGRREEYDVLDKRRGRDPEMGGKPRRKNPQEGLYNELQKDKMAEAYSEIGMKGERRRGKGHDGLYQGLSTATKDTYDALHMQALPPR
notes: Chimeric antigen receptor on engineered human T cells

Reference: patent US20220008473A1 (CRISPR THERAPEUTICS, published 2022)
